These results are taken from US20240018255A1.

Experiment [1] deals with SIRPα V2 fusion Fc (mouse IgG2a) (human; mouse). Kind of experiment: ELISA, plate coated with SIRPα V2-Fc (mouse IgG2a), anti-hFab secondary, OD450; fit value of a flat curve, see non_binding.
Experiment [2] concerns the target SIRPα V6 fusion Fc (mouse IgG2a) (human; mouse). Kind of experiment: ELISA, plate coated with SIRPα V6-Fc (mouse IgG2a), anti-hFab secondary, OD450.
Experiment [3] deals with SIRPα V9 fusion Fc (mouse IgG2a) (human; mouse). In words: ELISA, plate coated with SIRPα V9-Fc (mouse IgG2a), anti-hFab secondary, OD450.
Sequence of SIRPα V9 fusion Fc (mouse IgG2a) (human; mouse) (chain, as listed by the source limits assumed): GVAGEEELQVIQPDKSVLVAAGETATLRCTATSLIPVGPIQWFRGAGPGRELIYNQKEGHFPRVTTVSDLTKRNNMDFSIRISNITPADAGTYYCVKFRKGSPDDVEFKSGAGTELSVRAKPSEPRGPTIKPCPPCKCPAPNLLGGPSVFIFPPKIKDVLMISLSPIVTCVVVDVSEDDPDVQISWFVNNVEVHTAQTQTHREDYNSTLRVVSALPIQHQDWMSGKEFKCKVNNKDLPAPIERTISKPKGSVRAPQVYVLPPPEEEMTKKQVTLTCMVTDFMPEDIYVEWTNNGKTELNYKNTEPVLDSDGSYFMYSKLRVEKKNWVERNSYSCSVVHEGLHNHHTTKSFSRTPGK
Experiment [4] deals with SIRPα V10 fusion Fc (mouse IgG2a) (human; mouse). In words: ELISA, plate coated with SIRPα V10-Fc (mouse IgG2a), anti-hFab secondary, OD450; fit value of a flat curve, see non_binding.
Sequence of SIRPα V10 fusion Fc (mouse IgG2a) (human; mouse) (chain, as listed by the source limits assumed): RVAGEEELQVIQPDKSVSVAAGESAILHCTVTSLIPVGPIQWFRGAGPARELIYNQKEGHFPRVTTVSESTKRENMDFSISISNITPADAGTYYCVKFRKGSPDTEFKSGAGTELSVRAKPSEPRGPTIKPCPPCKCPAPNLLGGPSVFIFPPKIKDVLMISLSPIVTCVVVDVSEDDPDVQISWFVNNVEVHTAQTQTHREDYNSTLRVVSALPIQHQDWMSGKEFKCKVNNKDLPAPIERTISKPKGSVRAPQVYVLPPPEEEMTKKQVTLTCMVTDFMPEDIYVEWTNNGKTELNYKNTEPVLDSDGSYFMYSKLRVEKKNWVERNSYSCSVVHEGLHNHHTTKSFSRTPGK
The target of experiment [5] is SIRPα V4 fusion Fc (mouse IgG2a) (human; mouse). Kind of experiment: ELISA, plate coated with SIRPα V4-Fc (mouse IgG2a), anti-hFab secondary, OD450.
Sequence of SIRPα V4 fusion Fc (mouse IgG2a) (human; mouse) (chain, as listed by the source limits assumed): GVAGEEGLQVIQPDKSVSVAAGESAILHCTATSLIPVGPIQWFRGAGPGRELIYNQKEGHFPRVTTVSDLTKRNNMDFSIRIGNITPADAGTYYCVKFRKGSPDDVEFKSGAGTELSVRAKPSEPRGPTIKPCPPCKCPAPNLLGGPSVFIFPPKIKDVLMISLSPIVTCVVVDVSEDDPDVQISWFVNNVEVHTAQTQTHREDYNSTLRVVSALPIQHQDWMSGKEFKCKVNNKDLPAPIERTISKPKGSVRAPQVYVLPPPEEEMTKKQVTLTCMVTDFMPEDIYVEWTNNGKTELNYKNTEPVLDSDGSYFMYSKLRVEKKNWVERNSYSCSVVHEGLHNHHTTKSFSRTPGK
Experiment [6] addresses SIRPα V5 fusion Fc (mouse IgG2a) (human; mouse). In words: ELISA, plate coated with SIRPα V5-Fc (mouse IgG2a), anti-hFab secondary, OD450; unit from the axis Log(Conc.(nM)).
In experiment [7] the target is SIRPα V1 fusion Fc (mouse IgG2a) (human; mouse). In words: ELISA, plate coated with SIRPα V1-Fc (mouse IgG2a), anti-hFab secondary, OD450; unit from the axis Log(Conc.(nM)).
Sequence of SIRPα V1 fusion Fc (mouse IgG2a) (human; mouse) (chain, as listed by the source limits assumed): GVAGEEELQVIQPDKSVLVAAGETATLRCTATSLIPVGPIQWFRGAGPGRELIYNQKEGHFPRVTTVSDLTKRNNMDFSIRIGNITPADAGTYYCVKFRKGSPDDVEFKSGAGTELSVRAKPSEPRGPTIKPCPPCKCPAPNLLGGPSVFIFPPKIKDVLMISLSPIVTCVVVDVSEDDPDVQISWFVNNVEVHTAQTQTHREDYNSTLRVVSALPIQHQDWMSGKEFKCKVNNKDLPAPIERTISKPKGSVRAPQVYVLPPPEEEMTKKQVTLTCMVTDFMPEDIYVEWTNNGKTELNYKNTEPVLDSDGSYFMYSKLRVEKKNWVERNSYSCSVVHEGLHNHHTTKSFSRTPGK

Sequence of SIRPα V2 fusion Fc (mouse IgG2a) (human; mouse) (chain, as listed by the source limits assumed): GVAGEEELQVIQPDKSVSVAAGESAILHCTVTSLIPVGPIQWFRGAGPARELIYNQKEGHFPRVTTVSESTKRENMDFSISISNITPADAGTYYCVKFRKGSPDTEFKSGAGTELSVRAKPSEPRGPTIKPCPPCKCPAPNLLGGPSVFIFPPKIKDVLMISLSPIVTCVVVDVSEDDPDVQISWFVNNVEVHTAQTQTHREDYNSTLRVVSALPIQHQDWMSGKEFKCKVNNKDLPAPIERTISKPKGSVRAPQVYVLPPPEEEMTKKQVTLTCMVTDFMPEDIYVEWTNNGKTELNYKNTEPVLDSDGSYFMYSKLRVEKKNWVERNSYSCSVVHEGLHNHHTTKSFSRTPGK
Sequence of SIRPα V6 fusion Fc (mouse IgG2a) (human; mouse) (chain, as listed by the source limits assumed): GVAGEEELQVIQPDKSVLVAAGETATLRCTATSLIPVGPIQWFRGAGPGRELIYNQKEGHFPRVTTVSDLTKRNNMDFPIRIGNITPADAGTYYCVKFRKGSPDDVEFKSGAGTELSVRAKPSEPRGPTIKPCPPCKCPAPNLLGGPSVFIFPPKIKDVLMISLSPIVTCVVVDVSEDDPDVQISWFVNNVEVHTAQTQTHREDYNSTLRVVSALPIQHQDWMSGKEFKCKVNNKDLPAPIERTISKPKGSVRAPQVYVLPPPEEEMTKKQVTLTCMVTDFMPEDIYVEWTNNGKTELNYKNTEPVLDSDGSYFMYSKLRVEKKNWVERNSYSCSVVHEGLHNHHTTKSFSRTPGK
Sequence of SIRPα V5 fusion Fc (mouse IgG2a) (human; mouse) (chain, as listed by the source limits assumed): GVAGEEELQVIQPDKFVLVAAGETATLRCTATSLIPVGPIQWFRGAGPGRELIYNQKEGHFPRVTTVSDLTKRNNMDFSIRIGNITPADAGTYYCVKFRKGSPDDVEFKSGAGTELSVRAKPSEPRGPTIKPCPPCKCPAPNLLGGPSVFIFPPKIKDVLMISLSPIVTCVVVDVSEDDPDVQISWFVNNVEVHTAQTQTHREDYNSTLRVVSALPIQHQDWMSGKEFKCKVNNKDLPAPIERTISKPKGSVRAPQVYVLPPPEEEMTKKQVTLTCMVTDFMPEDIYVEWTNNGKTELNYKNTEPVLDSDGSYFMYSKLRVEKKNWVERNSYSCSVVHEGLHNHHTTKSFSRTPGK

B1: anti-SIRPα antibody 18D5 of OSE Company (antibody, from a related filing, V domains shown)
VH: QVQLQQPGAELVRPGSSVKLSCKASGYTFTSYWVHWVKQRPIQGLEWIGNIDPSDSDTHYNQKFKDKASLTVDKSSSTAYMQLSSLTFEDSAVYYCVRGGTGTMAWFAYWGQGTLVTVSA
VL: DVVMTQTPLSLPVSLGDQASISCRSSQSLVHSYGNTYLYWYLQKPGQSPKLLIYRVSNRFSGVPDRFSGSGSGTDFTLKISRVEAEDLGVYFCFQGTHVPYTFGSGTKLEIKR
In the case of B1, the EC50 was 0.0554 nM in experiment [1], 0.0554 nM in experiment [4], 0.13 nM in experiment [6] and 0.154 nM in experiment [7]. Besides, the EC50 (read off the curve) worked out at 0.1 nM in experiment [2], 0.2 nM in experiment [3] and 0.1 nM in experiment [5].
